Measurements from the supplement of paper PMC10201428.
± gives the standard deviation of the averaged measurements.

B1: library; a variant is named by its letters at N, in order (parent)
chain: AATGTTGTTGATGCAACCATAAAGTGATATTTAATAATTATTTATAATCAGCAACTTAACCACAAAACAACCATATATTGATATNTCACAAAACAACCATAANTTGATATTTTTGTGAATCGAGTATTTCAGCAAAACTACTGCAGTAAGAA

How the values were obtained:
[1] = variants of: B1; test: relative integration efficiency (T-LR orientation) vs wild-type transposon end (log2 (normalized fold change)); transposon end mutated: left end; higher = more efficient transposition; conditions: with VchCAST RNA-guided transposition machinery (E. coli BL21(DE3) host, lacZ target)
Method: (§1)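 Pooled, barcoded VchCAST (Tn6677) mini-transposon donor libraries; each variable transposon-end sequence sits in a fixed pDonor mini-transposon context (10-bp barcode and cargo not included). Left- or right-end libraries were co-transformed with pEffector (TniQ-Cascade, TnsABC, lacZ crRNA, T7, 0.1 mM IPTG) into E. coli BL21(DE3) and grown 18 h at 37 C. T-LR and T-RL junction amplicons were sequenced; output/input barcode fold change was normalised to the mean of four wild-type barcodes and log2-transformed. Two biological replicates; zero-count/undetected variants carry floor values (-10 / -15), censored here. Barcode uncoupling by PCR recombination adds noise.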

[2] = variants of: B1; test: relative integration efficiency (T-RL orientation) vs wild-type transposon end (log2 (normalized fold change)); transposon end mutated: left end; higher = more efficient transposition; conditions: with VchCAST RNA-guided transposition machinery (E. coli BL21(DE3) host, lacZ target)
Method: as §1

Variant	relative integration efficiency (log2) [1]	relative integration efficiency (log2) [2]
CA G24A T30A A96C T110A T113A	-0.0456 ± 0.31	-0.302 ± 0.28
CA G24A T30A A96C T112G T113C	0.199 ± 0.4	0.0766 ± 0.11
CA G24A T30A A102T T111C T113C	0.116 ± 0.42	-0.31 ± 0.36
TA G24A T30A T76A A77G C87T A96C T110A T113A	0.553 ± 0.26	0.0249 ± 0.25
TA G24A T30A T76A A77G C87T A96C T112G T113C	-0.263 ± 0.26	0.0641 ± 0.26
TA G24A T30A T76A A77G C87T A102T T111C T113C	-0.112 ± 0.15	-0.456 ± 0.55
TA G24A T30A T76A A77G C87T T104A T110A T113A	0.503 ± 0.28	-0.582 ± 0.57
TA G24A T30A T76A A77G C87T T104G T113A	0.395 ± 0.079	-0.232 ± 0.36
TA G24A T30A T76A T78A T84A C87A A96C T110A T113A	0.0142 ± 0.25	0.0999 ± 0.18
TA G24A T30A T76A T78A T84A C87A A96C T112G T113C	0.461 ± 0.4	0.172 ± 0.12
TA G24A T30A T76A T78A T84A C87A A102T T111C T113C	-0.493 ± 1.1	-0.0919 ± 0.22
TA G24A T30A T76A T78A T84A C87A T104A T110A T113A	0.184 ± 0.12	0.0385 ± 0.19
TA G24A T30A T76A T78A T84A C87A T104G T113A	0.368 ± 0.38	-0.186 ± 0.3
TA G24A T30A T76A T78G C87A A96C T110A T113A	0.291 ± 0.89	0.0775 ± 0.15
TA G24A T30A T76A T78G C87A A96C T112G T113C	0.0921 ± 0.22	0.299 ± 0.056
TA G24A T30A T76A T78G C87A A102T T111C T113C	-0.298 ± 0.65	0.243 ± 0.089
TA G24A T30A T76A T78G C87A T104A T110A T113A	0.464 ± 0.53	-0.242 ± 0.034
TA G24A T30A T76A T78G C87A T104G T113A	-0.302 ± 0.11	-0.161 ± 0.15
CA G24A T30A T104A T110A T113A	-0.0948 ± 0.19	-0.387 ± 0.2
CA G24A T30A T104G T113A	-0.317 ± 0.27	-0.387 ± 0.13
TA T76A A77G C87T A96C T110A T113A	-0.108 ± 0.52	-0.522 ± 0.3
TA T76A A77G C87T A96C T112G T113C	-0.4 ± 0.34	-0.203 ± 0.3
TA T76A A77G C87T A102T T111C T113C	-0.406 ± 0.13	-0.659 ± 0.28
TA T76A A77G C87T T104A T110A T113A	0.28 ± 0.36	-0.703 ± 0.35
TA T76A A77G C87T T104G T113A	0.151 ± 0.33	-0.605 ± 0.42
TA T76A T78A T84A C87A A96C T110A T113A	0.0631 ± 0.19	0.318 ± 0.081
TA T76A T78A T84A C87A A96C T112G T113C	-0.207 ± 0.74	0.00846 ± 0.17
TA T76A T78A T84A C87A A102T T111C T113C	-0.0132 ± 0.72	0.244 ± 0.16
TA T76A T78A T84A C87A T104A T110A T113A	0.357 ± 0.48	0.0146 ± 0.17
